Values of other authors, collected in paper PMC9074927.
Like-named read-outs stand apart in the source and are kept apart here.

Assays:
[1] = molecular target: histone H3 (Homo sapiens) (UniProt P68431)
[2] = molecular target: histone H3 (Homo sapiens) (UniProt P68431); remark: listed apart in the source

| Substance | Kd [1] [nM] | Kd [2] [nM] |
| --- | --- | --- |
| CBX1 eReader chromodomain (from UniProt P83916) | 130 | – |
| CBX1 chromodomain (from UniProt P83916) | – | 600 |
